Source: patent US20190269761A1

How the values were obtained:
[1] = target: mSWI/SNF (BAF) complexes, endogenous; experiment: urea denaturation and IP, as restated in the discussion; complexes of synovial sarcoma cells
[2] = target: mSWI/SNF (BAF) complexes, endogenous; experiment: quantitative densitometry of anti-SS18 immunoblot of glycerol gradient, Aska-SS cells bearing SS18-SSX1
[3] = target: mSWI/SNF (BAF) complexes, endogenous; experiment: urea denaturation of 293T nuclear extract followed by anti-Brg IP and immunoblot
[4] = target: mSWI/SNF (BAF) complexes, endogenous; experiment: urea denaturation and IP, as restated in the discussion

Row | urea concentration required to remove [1] [M] | percentage of BAF complexes that contain wild-type SS18 [2] [%] | urea concentration required to dissociate [3] [M] | urea concentration required to remove [4] [M] | Substance
1 | 8 | – | – | – | SS18-SSX1 fusion protein (from UniProt Q15532 1-379)
2 | – | 2 to 8 | 5 | 8 | SS18 (wild-type, endogenous human) (from UniProt Q15532 2-418)
